Blank lines part the entries; values can stand above or below the molecule they belong to. *: point of attachment. Biotin = O=C1N[C@H]2[C@H](CS[C@H]2CCCCC(=O)*)N1; Ahx = NCCCCCC(=O)O
Legend:
[1] = target: T1, EGFR (Homo sapiens, UniProt P00533); test: Cyclic polypeptide inhibition of EGFR phosphorylation in model HMEC cell system; format: cell-based; conditions: biotinylated cyclic polypeptide
T1 construct: tested them in a model HMEC cell system; endogenous in cells; host or cells: 184A1 human mammary epithelial cells (HMECs)
Source text: We selected amino acid sequences corresponding to fragments of Domain II and Domain IV of EGFR. The sequence of each polypeptide is shown in the first column of Table 1. The polypeptides were chosen based on their positions on the crystal structures of monomeric and dimeric EGFR (Burgess et al., Mol. Cell 12:541-552, 2003). Although Domain IV of EGFR is not resolved in the dimer crystal structure, it is believed that portions of Domain IV come into contact upon dimerization. […] We generated biotinylated cyclic polypeptides that included each sequence and tested them in a model HMEC cell system. The sequences of the biotinylated cyclic polypeptides are shown in the third column of Table 1. […] For the LYNPTTYQMD polypeptide, the different results obtained from polypeptide and polyclonal antisera inhibition could be due to differences in the quantitative details of the assays, or the polypeptide could have a lower affinity for the receptor than the polyclonal antisera does.

[2] = target: T2, Biotin-GCRNVSRGRECG-CONH2 (SEQ ID NO:8) (not fully specified (bridges); printed as Biotin-GCRNVSRGRECG-; also: cyclic (ring type and places not given here)); test: yeast surface display screen of naive human library against the peptide (1 round MACS, 3 rounds FACS); clone isolated as specific binder
T2 construct: Biotinylated cyclic polypeptide; also called EGFR Domain IV (502-511) peptide
T2 peptide: Biotin-GCRNVSRGRECG-NH2

[3] = target: T3, Biotin-GCAHYIDGPHCG-CONH2 (SEQ ID NO:9) (not fully specified (bridges); printed as Biotin-GCAHYIDGPHCG-; also: cyclic (type of ring not given here)); test: as above
T3 construct: Biotinylated cyclic polypeptide; also called EGFR Domain IV (558-567) peptide
T3 peptide: Biotin-GCAHYIDGPHCG-NH2

[4] = target: T4, Biotin-GCLVWKYADAGCG-CONH2 (SEQ ID NO:11) (not fully specified (bridges); printed as Biotin-GCLVWKYADAGCG-; also: cyclic (ring type and places not given here)); test: as above
T4 construct: Biotinylated cyclic polypeptide; also called EGFR Domain IV (582-590) peptide
T4 peptide: Biotin-GCLVWKYADAGCG-NH2

[5] = target: T5, Biotin-GCGLYNPTTYQMDGCG-CONH2 (SEQ ID NO:7) (not fully specified (bridges); printed as Biotin-GCGLYNPTTYQMDGCG-; also: cyclic (type of ring not given here)); test: as above
T5 construct: Biotinylated cyclic polypeptide tested on HMECs; also called EGFR Domain II (245-254) peptide
T5 peptide: Biotin-GCGLYNPTTYQMDGCG-NH2

[6] = target: T6, Biotin-Aha-CMGENNTG-CONH2 (SEQ ID NO:10) (also: called cyclic, ring not described); test: as above
T6 construct: also called EGFR Domain IV (576-581) peptide
T6 peptide: {Biotin-Ahx}-CMGENNTG-NH2

binding result [3]: binds
B2: SEQ ID NO 35 (scFv)
scFv: QVQLVESEGRLVKPGGSLRLSCVASGMTFNNAWMSWVRQAPGKGLEWVGRIRSESNGGTTDYAAPGKGRFTISRDDSKNTLYLQMNSLQIEDTAVYYCATDRGYSNSGNYYRHYWGQGTLVTVSSGILGSGGGGSGGGGSGGGGSDIRLTQSPSSLSASVGDRVTITCQASQDISNYLNWYQQKPGKAPKLLIYDASNLETGVPPRFSGSGSGTAFTFTISSLQPEDFATYYCQQYDNLPHTFGPGTKVDIKSGILEQKLISEEDL

binding result [4]: binds
B4: SEQ ID NO 39 (other)
VH: QITLKESGPTVVKPTQTLTLTCTFSGFSLSTSGVGVGWIRQPPGKALEWLALISWDDDKRYSPSLKSRLTITKDTSKNQVVLTMTNMDPVDTATYFCAHLINFVDAIELRTGWCFDVWGRGTLVTVSGILGSGGGGSGGGGSGGGVLKLR

binding result [5]: binds
B5: SEQ ID NO 18 (other)
VH: QVQLVQSEGGVVQPGRSLRLSCAASGFTFSSYAMHWVRQAPGKGLEWVAVISYDGSNKYYADSVKGRFTISRDNSKNTLYLQMNSLRAEDTAVYYCARDEGYYGSGCIDYWGQGTLVTVSSGILGSGGGSGGGGSGGGGLQEF

binding result [6]: binds
B6: SEQ ID NO 37 (other)
VH: QVQLQESGPGLVKPSETLSLTCTVSGGSISNSDYYWGWIRQPPGKGLRWIGSINYYGTTYYNPSLKSRVAMSVDTSKNQFSLKLSSVTAADTAVYYCARRGANSWFFDLWGRGTLVTVSSGILGSGGGSGGGGSGGGGLQEF
notes: also called VH clone isolated against MGENNT

binding result [6]: binds
B7: SEQ ID NO 36 (other)
VH: QVQLQESGPGLVKPSETLSLTCTFSGGSIRSSSDYWGWVRQPPGKGLEWIGSISSSGSTYYNPSLKSRVTISVDTSRNQFSLRLSSVTAADTAIYYCARYNHYWYFDLWGRGTLVTVSSGILGSGGGSGGGGSGGGGSKRHSRSLQHSSQRLQETKSTSPAKPAKTLMMI
notes: as for B6

binding result [3]: binds
B8: SEQ ID NO 28 (scFv)
scFv: QVQLQQSGPGLVKPSQTLSLTCAISGDSVSSNSAAWNWIRQSPSRGLEWLGRTYYRSKWYNEYAVSVKSRITINPDTSKNHFSLQLNSVTPEDTAVYYCAREIVGTPFDYWGQGTLVTVSSGILGSGGGGSGGGGSGGGGSDIRVTQSPSSLSASVGDRVTITCRTSQSASKYVNWYQQKPGKVPKLLIYAASSLQSGVPSRFSGSGSGTHFTLSISNLQPGDMGTYYCQQGYGTPLTFGGGTKLEIKSGF

binding result [2]: binds
B9: SEQ ID NO 20 (other)
VH: QVQLQQSGPGLVKPSQTLSLTCDISGDSVSSDSAAWNWIRLSPSRGLEWLGRTYYWSKWYTDYAVSVKSRITINPDTSKNQFSLQLNSVTPEDTAVYFCARERYCSSTSCYLDAFDIWGQGTMVTVSGILGSGGGGSGGGGSGGGGLQEF

binding result [3]: binds
B10: SEQ ID NO 27 (scFv)
scFv: QITLKESGPTLVKPTQTLTLTCTFSGFSLSTNGVGVGWIRQPPGKALEWLALIYWNDDKRYSPSLKRRLTITKDTSKNQVVLTMTNMDPVDTATYYCAHRLLDSGYILPPTFDYWGQGTLVTVSSGILGSGGGGSGGGGSGGGGSEIVLTQSPGTLSLSPGERATLSCRASQSVNSGYLAWYQQKPGQAPRLLISAASSRATGIPDRFSGSGSGTDFTLTISRLEPEDFAVYYCQRYDTSRGFTFGPGTKVDIKSGF

binding result [5]: binds
B11: SEQ ID NO 19 (other)
VH: QVQLVQSEGGVVQPGRSLRLSCAAPGFTFSSYAMHWVRQAPGKGLEWVAVISYDGSNKYYADSVKGRFTISRDNSKNTLYLQMNSLRAEDTAVYYCARDEGYYGSGCIDYWGQGTLVTVSSGILGSGGGGSGGGGSGGGGLQEF

Further lines, the molecule ahead of its results:

Molecule: CAHYIDGPHC [Biotin-GCAHYIDGPHCG-CONH2]
Peptide Inhibition [1]: Yes

Molecule: LYNPTTYQMD [Biotin-GCGLYNPTTYQMDGCG-CONH2]
Peptide Inhibition [1]: No

Molecule: CRNVSRGREC [Biotin-GCRNVSRGRECG-CONH2]
Peptide Inhibition [1]: Yes

Molecule: LVWKYADAG [Biotin-GCLVWKYADAGCG-CONH2]
Peptide Inhibition [1]: Yes

B1: SEQ ID NO 21 (other)
VH: QVQLQQWGPGLLKPSETLSLTCGVSGGSLSGYYWSWIRQSPGKELEWIGEINQGGSTNYNPSLRSRVTISVDTSKKQLSLKVNSVTASDTAVYYCARETFRGSNCFDSWGQGTLVTVSSGILGSGGGIGGGGSGGGGLQEF
binding result [2]: binds

B3: SEQ ID NO 38 (other)
VH: QITLKESGPTVVKPTQTLTLTCTFSGFSLSTSGVGVGWIRQPPGKALEWLALISWDDDKRYSPSLKSRLTITKDTSKNQVVLTMTNMDPVDTATYFCAHLNNFVDAIELRTGWCFDVWGRGTLVTVSGILGSGGGGSGGGGSGGGVLKLC
binding result [4]: binds

— patent publication US20070009972A1, “Epidermal growth factor receptor polypeptides and antibodies” (priority 2005, published 2007)
